From patent US20220204611A1 (Amgen, published 2022)
Numbering of substitutions follows the chain as printed.

T1: human TREM2 (human, UniProt Q9NZC2 19-174, limits assumed)
T1 sequence: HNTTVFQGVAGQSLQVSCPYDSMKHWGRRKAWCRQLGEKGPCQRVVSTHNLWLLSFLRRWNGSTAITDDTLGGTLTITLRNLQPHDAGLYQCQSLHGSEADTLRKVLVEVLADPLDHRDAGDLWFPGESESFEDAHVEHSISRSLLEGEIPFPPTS

B1: V65 (Fab, V domains shown)
VH: EVQLVQSGAEVKKPGESLKISCKGSGYSFTSYWIAWVRQMPGKGLEWMGIIYPGDSDTRYSPSFQGQVTISADKSISTAYLQWSSLKASDTAMYFCARSRTFYYDSSDYFDYWGQGTLVTVSS
VL: DIQMTQSPSSVSASVGDRVTITCRASQGISSWLAWYQQKPGKAPKLLIYAASSLQNGVPSRFSGSGSGTDFTLTISSLQPEDFATYFCQQADSFPRTFGQGTKLEIK
B2: V16 (Fab, V domains shown)
VH: B1 VH with F29M, S56G
VL: B1 VL with S53N
B3: V3 (Fab, V domains shown)
VH: B1 VH with T30A, G66D, S99G
VL: B1 VL with L54R, S93R
B4: V17 (Fab, V domains shown)
VH: B1 VH with T30G
VL: B1 VL with L54R, F94S
B5: V1 (Fab, V domains shown)
VH: B1 VH with Y32S
VL: B1 VL with Q55T, F94Y
B6: V13 (Fab, V domains shown)
VH: B1 VH with T30G, P62A, S99G
VL: B1 VL with N56G, F94M
B7: V4 (Fab, V domains shown)
VH: B1 VH with T30G, Y60V
VL: B1 VL with S53R, F94Y
B8: V24 (Fab, V domains shown)
VH: B1 VH with T58V
VL: B1 VL with N56K, R96H
B9: V15 (Fab, V domains shown)
VH: B1 VH with T30A, I50T
VL: B1 VL with S53W, F94Y
B10: V5 (Fab, V domains shown)
VH: B1 VH with I50T, S99Q
VL: B1 VL with F94H
B11: V2 (Fab, V domains shown)
VH: B1 VH with Y27S, S56G
VL: B1 VL with L54R, S93R
B12: V14 (Fab, V domains shown)
VH: B1 VH with T30G, S56Q, S99G
VL: B1 VL with S53R
B13: V90 (Fab, V domains shown)
VH: B1 VH with Y32E, S99Q
VL: B1 VL with S31R
B14: V83 (Fab, V domains shown)
VH: B1 VH with S99Q
VL: B1 VL with D92V
B15: V78 (Fab, V domains shown)
VH: B1 VH with S28R, S99Q
VL: B1 VL
B16: V93 (Fab, V domains shown)
VH: B1 VH with S99Q
VL: B1 VL with S31G
B17: V69 (Fab, V domains shown)
VH: B1 VH with S99Q
VL: B1 VL with W32Y
B18: V94 (Fab, V domains shown)
VH: B1 VH with S99Q
VL: B1 VL with S52A
B19: V71 (Fab, V domains shown)
VH: B1 VH with S99Q
VL: B1 VL with F94E
B20: V79 (Fab, V domains shown)
VH: B1 VH with R59N, S99Q
VL: B1 VL
B21: V81 (Fab, V domains shown)
VH: B1 VH with S99Q
VL: B1 VL with W32L
B22: V70 (Fab, V domains shown)
VH: B1 VH with S99Q
VL: B1 VL with S52G
B23: V92 (Fab, V domains shown)
VH: B1 VH with S99Q, Y103H
VL: B1 VL
B24: V82 (Fab, V domains shown)
VH: B1 VH with S99Q
VL: B1 VL with A51G
B25: V80 (Fab, V domains shown)
VH: B1 VH with S99Q, T101N
VL: B1 VL
B26: V91 (Fab, V domains shown)
VH: B1 VH with G54D, S99Q
VL: B1 VL

What follows are binders tested against T1, human TREM2 (assay: yeast-displayed Fab FACS, 2nd screen 2 nM).

B1 was tested. Which “binding signal fold over 6E7 parental” value did it give?
Its value is 1.29 fold.

Which “binding signal fold over 6E7 parental” value does the source give for B2 here?
Its value is 3.57 fold.

With B3 as the binder, how does the “binding signal fold over 6E7 parental” value read?
Its value is 1.95 fold.

For B4, which “binding signal fold over 6E7 parental” value is on record?
Its value is 4.22 fold.

Which “binding signal fold over 6E7 parental” value does the source give for B5 here?
Its value is 1.29 fold.

B6 was tested. Which “binding signal fold over 6E7 parental” value did it give?
The value was 1.15 fold.

How did the “binding signal fold over 6E7 parental” value turn out when B7 was run?
The value was 5.88 fold.

B8 was tested. Which “binding signal fold over 6E7 parental” value did it give?
Its value is 1.42 fold.

Which “binding signal fold over 6E7 parental” value does the source give for B9 here?
The value was 4.72 fold.

How did the “binding signal fold over 6E7 parental” value turn out when B10 was run?
The value was 1.25 fold.

With B11 as the binder, how does the “binding signal fold over 6E7 parental” value read?
The value was 2.23 fold.

With B12 as the binder, how does the “binding signal fold over 6E7 parental” value read?
The value was 2.57 fold.

What follows are binders tested against T1, human TREM2 (assay: yeast-displayed Fab FACS, 1st screen 10 nM).

With B1 as the binder, how does the “binding signal fold over 6E7 parental” value read?
The value was 2.05 fold.

For B2, which “binding signal fold over 6E7 parental” value is on record?
Its value is 4.01 fold.

For B3, which “binding signal fold over 6E7 parental” value is on record?
The value was 1.97 fold.

Which “binding signal fold over 6E7 parental” value does the source give for B4 here?
The value was 5.37 fold.

How did the “binding signal fold over 6E7 parental” value turn out when B5 was run?
The value was 1.68 fold.

With B6 as the binder, how does the “binding signal fold over 6E7 parental” value read?
Its value is 1.31 fold.

With B7 as the binder, how does the “binding signal fold over 6E7 parental” value read?
Its value is 6 fold.

B8 was tested. Which “binding signal fold over 6E7 parental” value did it give?
The value was 2.64 fold.

How did the “binding signal fold over 6E7 parental” value turn out when B9 was run?
The value was 5.23 fold.

With B10 as the binder, how does the “binding signal fold over 6E7 parental” value read?
Its value is 2.73 fold.

B11 was tested. Which “binding signal fold over 6E7 parental” value did it give?
Its value is 2.55 fold.

With B12 as the binder, how does the “binding signal fold over 6E7 parental” value read?
The value was 4.71 fold.

What follows are binders tested against T1, human TREM2 (assay: yeast-displayed Fab FACS, 2nd screen 10 nM).

How did the “binding signal fold over 6E7 parental” value turn out when B1 was run?
Its value is 2.75 fold.

For B2, which “binding signal fold over 6E7 parental” value is on record?
Its value is 4.04 fold.

With B3 as the binder, how does the “binding signal fold over 6E7 parental” value read?
Its value is 2.24 fold.

B4 was tested. Which “binding signal fold over 6E7 parental” value did it give?
The value was 5.51 fold.

Which “binding signal fold over 6E7 parental” value does the source give for B5 here?
Its value is 1.92 fold.

For B6, which “binding signal fold over 6E7 parental” value is on record?
The value was 1.35 fold.

With B7 as the binder, how does the “binding signal fold over 6E7 parental” value read?
The value was 5.51 fold.

With B8 as the binder, how does the “binding signal fold over 6E7 parental” value read?
The value was 2.9 fold.

With B9 as the binder, how does the “binding signal fold over 6E7 parental” value read?
Its value is 4.78 fold.

With B10 as the binder, how does the “binding signal fold over 6E7 parental” value read?
The value was 2.84 fold.

With B11 as the binder, how does the “binding signal fold over 6E7 parental” value read?
The value was 2.9 fold.

For B12, which “binding signal fold over 6E7 parental” value is on record?
Its value is 4.64 fold.

These binders were tested against T1, human TREM2 (assay: yeast-displayed Fab FACS, 1st screen 110 nM).

With B13 as the binder, how does the “binding signal fold over 6E7 parental” value read?
Its value is 0.33 fold.

B14 was tested. Which “binding signal fold over 6E7 parental” value did it give?
Its value is 0.2 fold.

For B15, which “binding signal fold over 6E7 parental” value is on record?
The value was 0.86 fold.

How did the “binding signal fold over 6E7 parental” value turn out when B16 was run?
The value was 0.35 fold.

For B17, which “binding signal fold over 6E7 parental” value is on record?
Its value is 0.41 fold.

With B18 as the binder, how does the “binding signal fold over 6E7 parental” value read?
Its value is 0.31 fold.

How did the “binding signal fold over 6E7 parental” value turn out when B19 was run?
Its value is 0.37 fold.

With B20 as the binder, how does the “binding signal fold over 6E7 parental” value read?
The value was 0.7 fold.

How did the “binding signal fold over 6E7 parental” value turn out when B21 was run?
Its value is 0.17 fold.

Which “binding signal fold over 6E7 parental” value does the source give for B22 here?
Its value is 0.79 fold.

For B23, which “binding signal fold over 6E7 parental” value is on record?
The value was 0.22 fold.

Which “binding signal fold over 6E7 parental” value does the source give for B24 here?
The value was 0.3 fold.

For B25, which “binding signal fold over 6E7 parental” value is on record?
The value was 0.59 fold.

How did the “binding signal fold over 6E7 parental” value turn out when B26 was run?
Its value is 0.25 fold.

Each binder was assayed against T1, human TREM2 (assay: yeast-displayed Fab FACS, 2nd screen 100 nM).

Which “binding signal fold over 6E7 parental” value does the source give for B13 here?
Its value is 0.36 fold.

Which “binding signal fold over 6E7 parental” value does the source give for B14 here?
Its value is 0.29 fold.

How did the “binding signal fold over 6E7 parental” value turn out when B15 was run?
The value was 1.11 fold.

For B16, which “binding signal fold over 6E7 parental” value is on record?
Its value is 1.05 fold.

Which “binding signal fold over 6E7 parental” value does the source give for B17 here?
The value was 0.4 fold.

How did the “binding signal fold over 6E7 parental” value turn out when B18 was run?
Its value is 0.87 fold.

For B19, which “binding signal fold over 6E7 parental” value is on record?
The value was 0.48 fold.

For B20, which “binding signal fold over 6E7 parental” value is on record?
The value was 0.52 fold.

How did the “binding signal fold over 6E7 parental” value turn out when B21 was run?
Its value is 0.23 fold.

With B22 as the binder, how does the “binding signal fold over 6E7 parental” value read?
The value was 0.84 fold.

How did the “binding signal fold over 6E7 parental” value turn out when B23 was run?
The value was 0.65 fold.

For B24, which “binding signal fold over 6E7 parental” value is on record?
The value was 0.79 fold.

B25 was tested. Which “binding signal fold over 6E7 parental” value did it give?
Its value is 0.5 fold.

For B26, which “binding signal fold over 6E7 parental” value is on record?
The value was 0.61 fold.
